Reference: IntAct's records for PubMed 20727515

B1: ADP-ribosylation factor 6 (Homo sapiens), P62330 (parent)
chain: MGKVLSKIFGNKEMRILMLGLDAAGKTTILYKLKLGQSVTTIPTVGFNVETVTYKNVKFNVWDVGGQDKIRPLWRHYYTGTQGLIFVVDCADRDRIDEARQELHRIINDREMRDAIILIFANKQDLPDAMKPHEIQEKLGLTRIRDRNWYVQPSCATSGDGLYEGLTWLTSNYKS
partner: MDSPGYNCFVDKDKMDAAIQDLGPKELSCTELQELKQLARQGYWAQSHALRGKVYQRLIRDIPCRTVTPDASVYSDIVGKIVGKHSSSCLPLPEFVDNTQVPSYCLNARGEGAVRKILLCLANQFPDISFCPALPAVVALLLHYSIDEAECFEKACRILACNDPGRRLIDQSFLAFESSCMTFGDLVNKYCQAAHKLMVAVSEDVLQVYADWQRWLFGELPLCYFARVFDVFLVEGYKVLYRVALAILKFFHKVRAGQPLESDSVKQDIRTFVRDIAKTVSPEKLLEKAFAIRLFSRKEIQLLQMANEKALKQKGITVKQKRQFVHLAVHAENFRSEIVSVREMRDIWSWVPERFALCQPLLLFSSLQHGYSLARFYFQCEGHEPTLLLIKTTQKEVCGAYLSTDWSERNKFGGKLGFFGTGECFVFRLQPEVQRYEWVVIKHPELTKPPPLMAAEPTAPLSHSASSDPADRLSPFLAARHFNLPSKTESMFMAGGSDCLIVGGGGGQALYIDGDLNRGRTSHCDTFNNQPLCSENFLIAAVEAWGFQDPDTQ
B2: TBC1 domain family member 24 (Homo sapiens), Q9ULP9-2 (parent)
chain: B1 partner

Variants of: B1
Details: with TBC1D24, Q9ULP9-2

| Variant | effect of a mutation on the interaction |
| --- | --- |
| T27N | increasing interaction strength |
| Q67L | with no effect |

Variants of: B2
Details: with arf6_human ARF6, P62330

| Variant | effect of a mutation on the interaction |
| --- | --- |
| D147H | decreasing interaction strength |
| A509V | with no effect |
